Measurements published in patent publication US20150258192A1, “COMPOSITIONS AND METHODS FOR PREVENTING OR TREATING CHRONIC LUNG ALLOGRAFT DYSFUNCTION (CLAD) AND IDIOPATHIC PULMONARY FIBROSIS (IPF)” (priority 2014, published 2015).
No end group written: not given here.

Legend:
Test in all cases: Kinase Profiling Assay
Type in all cases: biochemical
Conditions in all cases: peptide 100 μM
TSSK1(h) = target: T1, TSSK1(h) (Homo sapiens, UniProt Q9BXA7)
T1 sequence (Q9BXA7 1-367): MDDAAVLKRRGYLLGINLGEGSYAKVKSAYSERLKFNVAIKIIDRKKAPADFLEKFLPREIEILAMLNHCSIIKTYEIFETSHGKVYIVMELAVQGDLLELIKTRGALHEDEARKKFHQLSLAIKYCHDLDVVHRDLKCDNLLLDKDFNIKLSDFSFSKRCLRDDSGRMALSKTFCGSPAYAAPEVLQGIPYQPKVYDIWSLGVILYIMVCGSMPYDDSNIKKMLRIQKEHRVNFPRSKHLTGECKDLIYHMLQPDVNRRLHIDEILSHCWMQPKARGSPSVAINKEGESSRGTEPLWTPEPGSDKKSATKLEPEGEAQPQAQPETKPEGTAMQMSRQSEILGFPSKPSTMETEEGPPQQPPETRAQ
Experimental: (§1) Every kinase activity measurement was conducted in duplicate.
(§2) Specifically, in these assays, a positively charged substrate is phosphorylated with a radiolabeled phosphate group from an ATP if the kinase is not inhibited by an inhibitor peptide. The positively charged substrate then is attracted to a negatively charged filter membrane, quantified with a scintillation counter, and compared to a 100% activity control.
(§3) In addition to determining the IC50 of the compound, the specificity of MK2 inhibitory peptides was assessed by examining activities of all 266 human kinases available for testing in the Millipore kinase profiling service (Table 1).

NEK11(h) = target: T2, NEK11(h) (Homo sapiens, UniProt Q8NG66)
T2 construct: purchased Millipore
T2 sequence (Q8NG66 1-645): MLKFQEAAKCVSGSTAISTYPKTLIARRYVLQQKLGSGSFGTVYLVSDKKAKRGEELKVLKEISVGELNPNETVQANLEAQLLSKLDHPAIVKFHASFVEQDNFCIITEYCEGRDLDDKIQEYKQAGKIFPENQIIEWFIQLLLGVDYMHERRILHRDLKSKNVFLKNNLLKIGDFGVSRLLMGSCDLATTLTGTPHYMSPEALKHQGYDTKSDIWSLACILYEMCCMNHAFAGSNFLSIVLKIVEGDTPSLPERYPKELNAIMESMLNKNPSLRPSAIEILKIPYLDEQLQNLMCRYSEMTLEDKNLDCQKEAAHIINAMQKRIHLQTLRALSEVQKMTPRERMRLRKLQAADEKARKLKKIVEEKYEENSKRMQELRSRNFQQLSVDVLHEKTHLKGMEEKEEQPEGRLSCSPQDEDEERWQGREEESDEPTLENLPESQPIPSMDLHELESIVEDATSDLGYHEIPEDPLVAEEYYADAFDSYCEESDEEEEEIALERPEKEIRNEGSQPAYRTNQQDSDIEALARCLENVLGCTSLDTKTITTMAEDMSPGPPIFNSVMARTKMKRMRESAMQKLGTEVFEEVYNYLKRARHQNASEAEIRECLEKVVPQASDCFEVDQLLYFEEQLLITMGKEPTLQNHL
Experimental: as §1, §2, §3

FGFR1(V561M)(h) = FGFR1(V561M)(h) (Homo sapiens, UniProt P11362, V561M)
FGFR1(V561M)(h), sequence (P11362 22-822 V561M): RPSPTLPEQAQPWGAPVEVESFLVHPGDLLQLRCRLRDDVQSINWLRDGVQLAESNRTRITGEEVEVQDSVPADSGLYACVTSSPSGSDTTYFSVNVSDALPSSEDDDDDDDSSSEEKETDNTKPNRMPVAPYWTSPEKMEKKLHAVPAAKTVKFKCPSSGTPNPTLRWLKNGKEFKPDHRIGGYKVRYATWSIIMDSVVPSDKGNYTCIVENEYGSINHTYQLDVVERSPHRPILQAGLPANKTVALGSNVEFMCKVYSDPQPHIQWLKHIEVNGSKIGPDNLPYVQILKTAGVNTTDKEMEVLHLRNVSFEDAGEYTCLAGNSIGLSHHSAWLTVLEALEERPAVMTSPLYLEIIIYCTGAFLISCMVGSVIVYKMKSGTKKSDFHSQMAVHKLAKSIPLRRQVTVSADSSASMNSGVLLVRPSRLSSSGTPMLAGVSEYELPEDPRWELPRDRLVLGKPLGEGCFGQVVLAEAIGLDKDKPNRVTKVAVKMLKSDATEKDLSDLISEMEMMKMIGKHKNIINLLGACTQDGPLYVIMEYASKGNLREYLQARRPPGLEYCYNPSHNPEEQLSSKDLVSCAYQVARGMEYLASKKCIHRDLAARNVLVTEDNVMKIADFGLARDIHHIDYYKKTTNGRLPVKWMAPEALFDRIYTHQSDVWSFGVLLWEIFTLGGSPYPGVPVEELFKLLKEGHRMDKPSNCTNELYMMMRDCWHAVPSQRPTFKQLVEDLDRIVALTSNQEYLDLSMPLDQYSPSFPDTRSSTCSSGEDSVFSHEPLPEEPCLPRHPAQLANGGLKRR
Experimental: as §1, §2, §3

EGFR(L858R)(h) = EGFR(L858R)(h) (Homo sapiens, UniProt P00533, L858R)
Experimental: as §1, §2, §3

Fgr(h) = Fgr(h) (Homo sapiens, UniProt P09769)
Experimental: as §1, §2, §3

CK1δ(h) = CK1δ(h) (Homo sapiens, UniProt P48730)
CK1δ(h), sequence (P48730 whole entry): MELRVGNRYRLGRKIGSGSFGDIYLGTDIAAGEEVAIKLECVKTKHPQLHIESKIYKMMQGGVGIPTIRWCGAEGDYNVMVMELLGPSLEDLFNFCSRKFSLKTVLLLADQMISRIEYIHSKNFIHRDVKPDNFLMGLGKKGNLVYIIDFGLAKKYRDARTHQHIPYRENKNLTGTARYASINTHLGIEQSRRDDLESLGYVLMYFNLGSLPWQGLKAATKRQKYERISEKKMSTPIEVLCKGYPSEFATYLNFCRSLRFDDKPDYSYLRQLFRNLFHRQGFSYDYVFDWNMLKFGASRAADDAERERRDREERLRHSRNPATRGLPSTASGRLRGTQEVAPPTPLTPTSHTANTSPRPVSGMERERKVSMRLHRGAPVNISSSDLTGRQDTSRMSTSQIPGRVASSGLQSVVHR
Experimental: as §1, §2, §3

Fms(Y969C)(h) = Fms(Y969C)(h) (Homo sapiens, UniProt P07333, Y969C)
Experimental: as §1, §2, §3

Met(Y1248D)(h) = target: T3, Met(Y1248D)(h) (Homo sapiens, UniProt P08581, Y1230D)
T3 construct: purchased Millipore
Experimental: as §1, §2, §3

SAPK3(h) = target: T4, SAPK3(h) (Homo sapiens, UniProt P53778)
T4 construct: purchased Millipore
T4 sequence (P53778 1-367): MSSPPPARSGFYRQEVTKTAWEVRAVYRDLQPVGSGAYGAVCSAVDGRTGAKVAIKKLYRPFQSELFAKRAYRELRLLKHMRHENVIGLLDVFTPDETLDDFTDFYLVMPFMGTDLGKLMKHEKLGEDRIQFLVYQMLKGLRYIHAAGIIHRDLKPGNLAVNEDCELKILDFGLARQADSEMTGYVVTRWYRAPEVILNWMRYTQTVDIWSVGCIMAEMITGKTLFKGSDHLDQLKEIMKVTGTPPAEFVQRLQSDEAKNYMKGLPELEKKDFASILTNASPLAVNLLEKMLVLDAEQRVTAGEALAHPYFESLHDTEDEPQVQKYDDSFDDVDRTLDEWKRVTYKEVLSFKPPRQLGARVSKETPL
Experimental: as §1, §2, §3

Ron(h) = Ron(h) (Homo sapiens, UniProt Q04912)
Experimental: as §1, §2, §3

JNK1α1(h) = target: T5, JNK1α1(h) (Homo sapiens, UniProt P45983)
T5 construct: purchased Millipore
T5 sequence (P45983 1-384 isoform P45983-2): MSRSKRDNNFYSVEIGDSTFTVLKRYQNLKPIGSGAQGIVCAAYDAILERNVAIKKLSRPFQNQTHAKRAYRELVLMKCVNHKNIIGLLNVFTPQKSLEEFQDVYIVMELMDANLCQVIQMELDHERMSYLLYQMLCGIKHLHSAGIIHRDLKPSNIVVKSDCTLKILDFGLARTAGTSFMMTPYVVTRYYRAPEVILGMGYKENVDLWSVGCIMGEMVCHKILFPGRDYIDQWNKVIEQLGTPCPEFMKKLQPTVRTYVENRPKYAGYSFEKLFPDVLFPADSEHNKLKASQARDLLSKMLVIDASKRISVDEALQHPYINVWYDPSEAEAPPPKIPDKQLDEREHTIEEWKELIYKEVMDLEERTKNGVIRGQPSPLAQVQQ
Experimental: as §1, §2, §3

PrKX(h) = target: T6, PrKX(h) (Homo sapiens, UniProt P51817)
T6 sequence (P51817 1-358): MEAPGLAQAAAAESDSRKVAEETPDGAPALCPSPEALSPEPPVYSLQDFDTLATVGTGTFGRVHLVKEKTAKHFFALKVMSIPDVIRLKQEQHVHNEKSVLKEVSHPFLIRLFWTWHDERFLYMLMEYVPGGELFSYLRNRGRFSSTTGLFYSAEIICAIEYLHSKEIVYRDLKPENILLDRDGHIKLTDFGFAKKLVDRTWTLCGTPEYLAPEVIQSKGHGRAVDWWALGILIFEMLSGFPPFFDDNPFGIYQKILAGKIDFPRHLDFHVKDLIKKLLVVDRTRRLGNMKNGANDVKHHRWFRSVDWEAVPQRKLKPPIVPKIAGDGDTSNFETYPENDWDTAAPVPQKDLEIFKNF
Experimental: as §1, §2, §3

Plk3(h) = Plk3(h) (Homo sapiens, UniProt Q9H4B4)
Plk3(h), sequence (Q9H4B4 whole entry): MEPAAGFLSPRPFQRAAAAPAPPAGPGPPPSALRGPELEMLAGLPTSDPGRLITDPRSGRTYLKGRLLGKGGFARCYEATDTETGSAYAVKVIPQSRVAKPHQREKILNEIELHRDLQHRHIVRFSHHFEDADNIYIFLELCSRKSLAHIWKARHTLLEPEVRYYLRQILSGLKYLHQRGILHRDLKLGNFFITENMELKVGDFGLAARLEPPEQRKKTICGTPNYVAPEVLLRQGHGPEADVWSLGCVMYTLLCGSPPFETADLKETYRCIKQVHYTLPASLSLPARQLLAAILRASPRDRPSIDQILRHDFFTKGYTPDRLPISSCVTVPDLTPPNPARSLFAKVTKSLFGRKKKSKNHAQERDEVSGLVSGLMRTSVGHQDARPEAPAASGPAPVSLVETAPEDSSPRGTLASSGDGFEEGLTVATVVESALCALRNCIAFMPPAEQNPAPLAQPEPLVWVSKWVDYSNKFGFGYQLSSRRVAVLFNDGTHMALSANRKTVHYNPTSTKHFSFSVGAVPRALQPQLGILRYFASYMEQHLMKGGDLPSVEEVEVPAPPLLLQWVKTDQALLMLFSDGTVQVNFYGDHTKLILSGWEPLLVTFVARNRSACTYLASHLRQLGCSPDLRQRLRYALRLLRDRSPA
Experimental: as §1, §2, §3

Sequence | % activity (TSSK1(h)) [%] | % activity (NEK11(h)) [%] | % activity (FGFR1(V561M)(h)) [%] | % activity (EGFR(L858R)(h)) [%] | % activity (Fgr(h)) [%] | % activity (CK1δ(h)) [%] | % activity (Fms(Y969C)(h)) [%] | % activity (Met(Y1248D)(h)) [%] | % activity (SAPK3(h)) [%] | % activity (Ron(h)) [%] | % activity (JNK1α1(h)) [%] | % activity (PrKX(h)) [%] | % activity (Plk3(h)) [%]
YARAAARQARAKALNRQLGVA (Mammal) [MMI-0200] | 98 | 95 | 72 | 120 | 71 | 92 | 88 | 118 | 97 | 120 | – | – | –
YARAAARQARAKALARQLGVAA [MMI-0100] | 99 | – | 108 | 76 | – | – | 126 | 87 | – | – | 91 | 84 | –
HRRIKAWLKKIKALARQLGVAA (Mammal) [MMI-0500] | 46 | 2 | – | 26 | – | 78 | – | 218 | 24 | 46 | – | 57 | 122
KAFAKLAARLYRKALARQLGVAA [MMI-0400] | 79 | 33 | 74 | 52 | 47 | 93 | 91 | 31 | 79 | 79 | 98 | 76 | 129
FAKLAARLYRKALARQLGVAA [MMI-0300] | 79 | 53 | 74 | – | 60 | 92 | 72 | – | 84 | 93 | 97 | 61 | 127
